From IntAct's records for PubMed 25239945 come the findings set out here.

B1: Signal peptide peptidase (Homo sapiens), Q8TCT9 (parent)
chain: MDSALSDPHNGSAEAGGPTNSTTRPPSTPEGIALAYGSLLLMALLPIFFGALRSVRCARGKNASDMPETITSRDAARFPIIASCTLLGLYLFFKIFSQEYINLLLSMYFFVLGILALSHTISPFMNKFFPASFPNRQYQLLFTQGSGENKEEIINYEFDTKDLVCLGLSSIVGVWYLLRKHWIANNLFGLAFSLNGVELLHLNNVSTGCILLGGLFIYDVFWVFGTNVMVTVAKSFEAPIKLVFPQDLLEKGLEANNFAMLGLGDVVIPGIFIALLLRFDISLKKNTHTYFYTSFAAYIFGLGLTIFIMHIFKHAQPALLYLVPACIGFPVLVALAKGEVTEMFSYEESNPKDPAAVTESKEGTEASASKGLEKKEK
partner: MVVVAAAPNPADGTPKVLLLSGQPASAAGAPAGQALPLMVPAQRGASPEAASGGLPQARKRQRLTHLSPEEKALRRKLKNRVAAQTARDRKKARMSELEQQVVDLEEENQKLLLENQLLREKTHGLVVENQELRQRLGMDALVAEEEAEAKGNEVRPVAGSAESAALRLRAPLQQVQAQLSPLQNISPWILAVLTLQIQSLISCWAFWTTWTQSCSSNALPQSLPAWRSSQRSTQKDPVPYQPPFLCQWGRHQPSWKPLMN

The variants in the assay derive from B1. Particulars: with XBP1, P17861-1.
Regarding D265A, the “effect of a mutation on the interaction” value was “increasing interaction”.
